Experimental data published in patent EP2319871A1 (Sanofi-Aventis, dated 2011).
Several values for one entry are separate records, joined by “and”; a condition that tells them apart may be missing. Identical values can stand only once.

B1: 56 RAGE-1 (antibody, V domains shown)
VH: QVQLQQSGPELVKPGASVRISCKASGYTFTSYFIHWVKQRPGQGLEWIGWIYPGNVNTKYNEKFKDKATLTADKSSSTAYMQLSNLTSEDSAVYFCVRGQLGDYWGQGITLTVSS
VL: DIVMTQSQKFMSTSVGDRVSVTCKASQNVGINVAWYQQKPGQSPKALIYSASYRYSGVPDRFTGSGSGTDFTLIISNVQSEDLAEYFCQQYNNYPRTFGGGTKLEIK
notes: Hybridoma monoclonal antibody, captured on anti-mouse Fc in Biacore; also called LP08103; Protein 56 RAGE-1
B2: 95 RAGE-1 (antibody, V domains shown)
VH: QVQLQQPGAELVKPGASVKLSCKASGYTFTSYWMHWVKQRPGQGLEWIGESNPSNGRTNYNEKFKNKATLTVDKSSSTAYMQLSSLTSEDSAVYYCARAPYYGFDYWGQGTTLTVSS
VL: QAVVTQESALTTSPGETVTLTCRSSTGAVTTSNYANWVQEKPDHLFTGLTGGTNNRAPGVPARFSGSLIGDKAALTITGAQTEDEAIYFCALWYSNHWVFGGGTKLTVL
notes: Hybridoma monoclonal antibody, captured on anti-mouse Fc in Biacore; also called Protein 95 RAGE-1
B3: 140 RAGE-1 (antibody, V domains shown)
VH: QVQLQQPGAELVKPGASVRLSCKASGYTFTSYWMHWVKQRPGQGLEWIGEINPSNGRTNYNEKFKSKATLTVDKSSSTAYMQLSSLTSEDSAVYYCARDGLGYRPIAMDYWGQGTSVTVSS
VL: QIVLTQSPAIMSASPGEKVTISCSASSSVSYMYWYQQKPGSSPKPWIYRTSNLASGVPARFSGSGSGTSYSLTISSMEAEDAATYYCQQYHSYPPMYTFGGGTKLEIK
notes: Hybridoma monoclonal antibody, captured on anti-mouse Fc in Biacore; also called Protein 140 RAGE-1
B4: 130 RAGE-1 (antibody, V domains shown)
VH: EVQLVESGGGLVKPGGSLKLSCAASGFTFSSYVMSWVRQSPEKRLEWVAEISSGGSYTYYPDTVTGRFTISRDNDKNTLYLEMSSLRSEDTAMYYCARPPYGKDAMDYWGQGTSVTVSS
VL: QIVLTQSPAIMSASPGEKVTMTCSASSSVSYMHWYQQKSGTSPKRWISDTSKLASGVPARFSGSGSGTSYSLTISSMEAEDAATYYCQQWSSNPPTFGGGTKLEIK
notes: Hybridoma monoclonal antibody, captured on anti-mouse Fc in Biacore; also called Protein 130 RAGE-1
B5: 152 RAGE-1 (antibody, V domains shown)
VH: DVQLQESGPDLVKPSQSLSLTCTVTGYSITSGYSWHWIRQFPGNKLEWMGYIHYSGSTNYNPSLKSRISITRDTSKNQFFLQLNSVTTEDTATYYCARGGDFAYWGQGTLVTVSA
VL: DIVLTQSPASLAVSLGQRATISCRASKSVGTSDSSYMHWYQQKPGQPPKLLIYLASNLESGVPARFSGSGSGTDFTLNIHPVEEEDAATYYCQHSRELYTFGGGTKLEIK
notes: Hybridoma monoclonal antibody, captured on anti-mouse Fc in Biacore; also called LP08104; Protein 152 RAGE-1

Each binder was assayed against T1, RAGE-Fc (human, UniProt Q15109 23-342, limits assumed) (assay: competition ELISA, RAGE-S100A6 interaction (competitor S100A6)).
T1 construct: Format stated for the S100A12 and S100A6 ELISAs; also called hRAGE; not shown: Fc part, detected with anti-hIgG Fc-specific-POD
T1 sequence (Q15109 23-342 limits assumed): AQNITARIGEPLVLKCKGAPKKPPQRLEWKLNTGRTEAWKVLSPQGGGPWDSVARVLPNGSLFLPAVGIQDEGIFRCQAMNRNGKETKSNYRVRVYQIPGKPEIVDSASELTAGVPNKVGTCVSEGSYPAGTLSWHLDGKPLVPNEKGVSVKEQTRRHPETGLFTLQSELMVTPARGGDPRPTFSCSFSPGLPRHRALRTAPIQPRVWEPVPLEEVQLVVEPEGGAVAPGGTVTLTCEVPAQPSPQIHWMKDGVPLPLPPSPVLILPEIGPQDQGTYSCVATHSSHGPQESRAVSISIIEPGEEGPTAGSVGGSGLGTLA

IC50 [nM]	Binder
7.7	B1

Each binder was assayed against T2, sRAGE (V-C1-C2) lot LP08062 (human, UniProt Q15109 23-342) (assay: SPR (Biacore), mAb captured on anti-mouse Fc, sRAGE 15 nM, 1:1 Langmuir).
T2 construct: extracellular domain; also called Human RAGE; LP08062 (Rage)
T2 sequence (Q15109 23-342): as the sequence (Q15109 23-342 limits assumed) above

Kd [nM]	koff [s⁻¹]	kon [M⁻¹ s⁻¹]	Binder
1.87	0.00539	2.89e+06	B1
0.462	0.00123	2.66e+06	B2
0.303	0.00157	5.19e+06	B3
0.236	0.00136	5.76e+06	B4
0.687	0.00265	3.86e+06	B5

The binders below were run against T1, RAGE-Fc (assay: competition ELISA, RAGE-Fc 10 µg/mL + diluted mAb on coated S100A6 (competitor S100A6)).

IC50	Binder
1.16 µg/mL and 7.73 nM	B1

Each binder was assayed against RAGE-Fc (human) (UniProt Q15109) (assay: competition ELISA, mAb 10 µg/mL + RAGE-Fc 10 µg/mL on coated S100A6 (competitor S100A6)).
RAGE-Fc (human), sequence (Q15109 23-342 limits assumed): as above

inhibitory effect [%]	Binder
> 20	B5
